Measurements from publication PMC3021135.

Target: hAGT C145S (O6-alkylguanine-DNA alkyltransferase, inactive mutant) (human, UniProt P16455 1-207, C145S)
Assay: EMSA

Sequence of hAGT C145S (O6-alkylguanine-DNA alkyltransferase, inactive mutant) (P16455 whole entry C145S): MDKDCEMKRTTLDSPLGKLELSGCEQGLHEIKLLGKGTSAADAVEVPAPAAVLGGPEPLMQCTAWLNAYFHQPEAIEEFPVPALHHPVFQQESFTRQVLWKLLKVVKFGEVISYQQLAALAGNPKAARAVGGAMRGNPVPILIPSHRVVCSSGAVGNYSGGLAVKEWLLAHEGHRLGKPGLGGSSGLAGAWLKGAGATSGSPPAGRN

B1: Control (non-cross-linked duplex) (dsDNA)
DNA 1: CGATGTCATCG
DNA 2: CGATGACATCG
B1 was tested, and the Kd was 8.36 ± 1.11 µM.
